Test results published in article PMC7205207, “Modeling and mitigation of high-concentration antibody viscosity through structure-based computer-aided protein design” (PLoS ONE, 2020).
Where a chain is given by its changes, count along the chain named. Numbers in names are those of the source.

B1: R1-006 (antibody, V domains shown)
VH: EVQLLESGGGLVQPGGSLRLSCAASGFTFSSYAMSWVRQAPGKGLEWVSYISDDGSLKYYADSVKGRFTISRDNSKNTLYLQMNSLRAEDTAVYYCARHPYWYGGRLDLWGQGTLVTVSS
VL: SYELTQPPSVSVSPGQTASITCSGDSLGSYFVHWYQQKPGQSPVLVIYDDSNRPSGIPERFSGSNSGNTATLTISGTQAMDEADYYCSAFTHNSDVFGGGTKLTVL
notes: VL of AB-001 (AB-001_LC); only the variable regions are written; source: HEK293, transient, purified from conditioned medium (protein A, TMAE, HIC)
B2: R2-019 (antibody, V domains shown)
VH: B1 VH with E6Q, Q13K, R106Q
VL: B1 VL with E3V, S13A, Q16K, S19R, D49L, N52K
notes: as the VH of m20 (R2-001_HC); as the VL of m20 (R2-001_LC) with D50L (Kabat); only the variable regions are written; source: HEK293, transient, purified from conditioned medium (protein A, TMAE, HIC)
B3: R1-013 (antibody, V domains shown)
VH: B1 VH with E6Q, R106Q
VL: B1 VL with T17R
notes: only the variable regions are written; source: HEK293, transient, purified from conditioned medium (protein A, TMAE, HIC)
B4: R2-011 (antibody, V domains shown)
VH: B1 VH with E6Q, Q13K, R106K
VL: B1 VL with E3V, S13A, Q16K, S19R, N52K
notes: as the VH of m20 (R2-001_HC) with Q100bK; as the VL of m20 (R2-001_LC); only the variable regions are written; source: HEK293, transient, purified from conditioned medium (protein A, TMAE, HIC)
B5: R1-004 (antibody, V domains shown)
VH: B1 VH with A23R, R106Q
VL: B1 VL
notes: as for B1
B6: R2-005 (antibody, V domains shown)
VH: B1 VH with E6Q, Q13K, R106Q
VL: B1 VL with E3V, S13A, Q16K, S19R, Y48R, N52K
notes: as the VH of m20 (R2-001_HC); as the VL of m20 (R2-001_LC) with Y49R (Kabat); only the variable regions are written; source: HEK293, transient, purified from conditioned medium (protein A, TMAE, HIC)
B7: R1-018 (antibody, V domains shown)
VH: B1 VH
VL: B1 VL with T17R
notes: as for B3
B8: R1-010 (antibody, V domains shown)
VH: B1 VH with R98K, R106Q
VL: B1 VL with N52K
notes: VH of AB-001 (AB-001_HC); only the variable regions are written; source: HEK293, transient, purified from conditioned medium (protein A, TMAE, HIC)
B9: R2-013 (antibody, V domains shown)
VH: B1 VH with E6Q, Q13K, D53N, R106Q
VL: B1 VL with E3V, S13A, Q16K, S19R, N52K
notes: as the VH of m20 (R2-001_HC) with D52aN; as the VL of m20 (R2-001_LC); only the variable regions are written; source: HEK293, transient, purified from conditioned medium (protein A, TMAE, HIC)
B10: R1-009 (antibody, V domains shown)
VH: B1 VH with R98K, R106Q
VL: B1 VL with T17R
notes: as for B8
B11: R1-011 (antibody, V domains shown)
VH: B1 VH with R98K, R106Q
VL: B1 VL with D95N
notes: as for B8
B12: R1-014 (antibody, V domains shown)
VH: B1 VH with E6Q, Q13K, R106Q
VL: B1 VL with T17R
notes: as for B3
B13: R2-007 (antibody, V domains shown)
VH: B1 VH with E6Q, Q13K, R106Q
VL: B1 VL with E3V, S13A, Q16K, S19R, N52K, S64K
notes: as the VH of m20 (R2-001_HC); as the VL of m20 (R2-001_LC) with S65K (Kabat); only the variable regions are written; source: HEK293, transient, purified from conditioned medium (protein A, TMAE, HIC)
B14: R1-002 (antibody, V domains shown)
VH: B1 VH with E6Q, R106Q
VL: B1 VL
notes: as for B1
B15: R1-017 (antibody, V domains shown)
VH: B1 VH with Q13K, R106Q
VL: B1 VL with T17R
notes: as for B3
B16: R1-005 (antibody, V domains shown)
VH: B1 VH with D53N, R106Q
VL: B1 VL
notes: as for B1
B17: R2-018 (antibody, V domains shown)
VH: B1 VH with E6Q, Q13K, R106Q
VL: B1 VL with E3V, S13A, Q16K, S19R, D25N, N52K
notes: as the VH of m20 (R2-001_HC); as the VL of m20 (R2-001_LC) with D26N (Kabat); only the variable regions are written; source: HEK293, transient, purified from conditioned medium (protein A, TMAE, HIC)
B18: R2-022 (antibody, V domains shown)
VH: B1 VH with E6Q, Q13K, R106Q
VL: B1 VL with E3V, S13A, Q16K, S19R, N52K, D95N
notes: as the VH of m20 (R2-001_HC); as the VL of m20 (R2-001_LC) with D96N (Kabat); only the variable regions are written; source: HEK293, transient, purified from conditioned medium (protein A, TMAE, HIC)

molecular target: T1, human PDGF-BB (platelet derived growth factor B homodimer) (human, UniProt P01127); assay: SPR; Biacore T200, off-rate screen; antibody captured (~70 to 100 RU) by anti-human IgG amine-coupled to a CM5 chip; human PDGF-BB injected at a single 2.5 nM for 170 s, dissociation 300 s; HBS-EP+ N (10 mM HEPES, 500 mM NaCl, 3 mM EDTA, 0.05% Tween20, pH 7.4); 25 C; settings: both partners purified
T1 construct: Platelet derived growth factor B, human, homodimer, bought from PeproTech; the printed catalogue number may stand for 100-14B; source: bought: PeproTech, Catalog 100-148
T1 sequence (P01127 82-190): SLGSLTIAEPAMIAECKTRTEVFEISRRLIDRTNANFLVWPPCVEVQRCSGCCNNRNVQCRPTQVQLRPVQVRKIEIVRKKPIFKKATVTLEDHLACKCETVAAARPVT

| Binder | koff |
| --- | --- |
| B1 | 0.000314 s⁻¹ |
| B2 | 0.000673 s⁻¹ |
| B3 | 0.000297 s⁻¹ |
| B4 | 0.000414 s⁻¹ |
| B5 | 0.000258 s⁻¹ |
| B6 | 0.000348 s⁻¹ |
| B7 | 0.000419 s⁻¹ |
| B8 | 0.000372 s⁻¹ |
| B9 | 0.000344 s⁻¹ |
| B10 | 0.000393 s⁻¹ |
| B11 | 0.00086 s⁻¹ |
| B12 | 0.000405 s⁻¹ |
| B13 | 0.000401 s⁻¹ |
| B14 | 0.00038 s⁻¹ |
| B15 | 0.000471 s⁻¹ |
| B16 | 0.000381 s⁻¹ |
| B17 | 0.000386 s⁻¹ |
| B18 | 0.000361 s⁻¹ |
